Data taken from the supplement of paper PMC10065799, “High-throughput profiling of sequence recognition by tyrosine kinases and SH2 domains using bacterial peptide display” (eLife, 2023).

Target: Hck (UniProt P08631)
Assay: phosphorylation enrichment, bacterial display (enrichment ratio); higher = better substrate or ligand; peptides without Tyr show the background
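Further: 11-residue human phosphosite peptides and single-mutation variants displayed on the E. coli surface, counted by deep sequencing, each peptide's frequency after selection divided by its frequency in the unselected input library; frequency after pTyr selection over input frequency; kinase dosed for 20-30% of maximal phosphorylation in three min.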

Sequence of Hck (P08631 whole entry, looked up): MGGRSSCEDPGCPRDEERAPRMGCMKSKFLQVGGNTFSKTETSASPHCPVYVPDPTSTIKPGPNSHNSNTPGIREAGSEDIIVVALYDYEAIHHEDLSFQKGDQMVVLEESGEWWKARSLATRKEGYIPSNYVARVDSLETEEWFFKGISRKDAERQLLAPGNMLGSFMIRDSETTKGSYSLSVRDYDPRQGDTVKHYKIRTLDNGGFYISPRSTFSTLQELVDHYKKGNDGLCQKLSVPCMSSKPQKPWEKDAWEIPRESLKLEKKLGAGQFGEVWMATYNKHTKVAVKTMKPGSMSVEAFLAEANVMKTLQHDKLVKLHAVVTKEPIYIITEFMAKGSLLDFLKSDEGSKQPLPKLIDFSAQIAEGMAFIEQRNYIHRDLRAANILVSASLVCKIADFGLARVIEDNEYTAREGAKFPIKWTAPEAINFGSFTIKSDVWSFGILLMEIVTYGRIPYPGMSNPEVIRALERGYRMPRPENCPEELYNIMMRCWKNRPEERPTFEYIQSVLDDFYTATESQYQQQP

Sequence | phosphorylation enrichment
ILLAGYLVMVI [SLC28A3_Y113] | 0.525
KLNNEYLELNY [MME_Y497] | 0.627
FGSGNYNVFGN [HNRNPA2B1_Y300_D302V_YF] | 0.423
ADLLDYIKALN [HPRT1_Y81] | 0.52
EPSVPYRGMVF [GLI3_Y104_T107M] | 0.376
FALAEYTEVKT [ALDH1A3_Y497_YF] | 0.635
ERIEFYELNKK [PMM2_Y145_D148N] | 0.486
VNLVLHLSIAK [FBXO15_Y496_Y496H] | 0.588
SGDVQYRSSVR [FREM2_Y2158_T2153S] | 0.378
LDFNEYVRDLN [HPRT1_Y198_F199V_YF] | 0.707
DNLSNYVFQGQ [GRIN2A_Y978_N976S] | 0.41
AEFGLYRAMVR [VSX2_Y222_G223R_YF] | 4.12
HGVSSYDTIIS [LDLR_Y465_V468I] | 0.738
RNGNRYFKGIV [DCX_Y64_D62N] | 0.527
LPPREYVVVPS [CAPN1_Y494_G492R] | 1.73
RLLCEYQELMN [KRT75_Y434_R432C] | 0.761
SDVNKYSTAFG [GJB3_Y16_G12D] | 0.386

Sequence | phosphorylation enrichment
LEISPYMLSGR [LRRK2_Y1718] | 0.932
SSYDIYHLSRE [KIR3DL2_Y253] | 12.2
CTTIHYMYMCN [TP53_Y234_N235M] | 0.45
LTYHMYADPNI [SOS1_Y618_F623I] | 4.78
RLGNQYVNVMN [SLC3A1_Y461] | 0.446
PFRKLYESVKK [MKI67_Y241_W238R] | 0.563
ISSLCYELLEE [TRPC6_Y896_R895C] | 0.747
ALERPYTSKHS [NANS_Y71] | 0.463
SNPAYYVLEGV [INPPL1_Y987_N982S] | 0.917
RILDVYIFLGP [GAA_Y340_G335R] | 0.547
WHHIFYNELRV [ACTG1_Y91_T89I] | 0.569
DNKALYDICFR [TUBB3_Y208_E205K] | 4.34
DPADRYLTEQY [CDKL5_Y286_C291Y] | 0.497
GCKNHYDKDKP [THAP1_Y14_R13H] | 0.411
EKDSNYCLCRT [ASIC2_Y357] | 0.513
PATYTYDEYKK [COL8A2_Y648] | 1.55

Test system: AncSZ
Assay: as above

Sequence | phosphorylation enrichment
ILLAGYLVMVI [SLC28A3_Y113] | 1.35
KLNNEYLELNY [MME_Y497] | 1.08
FGSGNYNVFGN [HNRNPA2B1_Y300_D302V_YF] | 0.575
ADLLDYIKALN [HPRT1_Y81] | 1.07
EPSVPYRGMVF [GLI3_Y104_T107M] | 0.704
FALAEYTEVKT [ALDH1A3_Y497_YF] | 1.03
ERIEFYELNKK [PMM2_Y145_D148N] | 0.968
VNLVLHLSIAK [FBXO15_Y496_Y496H] | 1.15
SGDVQYRSSVR [FREM2_Y2158_T2153S] | 0.442
LDFNEYVRDLN [HPRT1_Y198_F199V_YF] | 1.69
DNLSNYVFQGQ [GRIN2A_Y978_N976S] | 0.71
AEFGLYRAMVR [VSX2_Y222_G223R_YF] | 0.753
HGVSSYDTIIS [LDLR_Y465_V468I] | 1.06
RNGNRYFKGIV [DCX_Y64_D62N] | 1.33
LPPREYVVVPS [CAPN1_Y494_G492R] | 2.29
RLLCEYQELMN [KRT75_Y434_R432C] | 1.5
SDVNKYSTAFG [GJB3_Y16_G12D] | 0.521

Sequence | phosphorylation enrichment
LEISPYMLSGR [LRRK2_Y1718] | 0.852
SSYDIYHLSRE [KIR3DL2_Y253] | 1.27
CTTIHYMYMCN [TP53_Y234_N235M] | 1.06
LTYHMYADPNI [SOS1_Y618_F623I] | 2.56
RLGNQYVNVMN [SLC3A1_Y461] | 0.619
PFRKLYESVKK [MKI67_Y241_W238R] | 0.931
ISSLCYELLEE [TRPC6_Y896_R895C] | 2.07
ALERPYTSKHS [NANS_Y71] | 0.531
SNPAYYVLEGV [INPPL1_Y987_N982S] | 1
RILDVYIFLGP [GAA_Y340_G335R] | 1
WHHIFYNELRV [ACTG1_Y91_T89I] | 1.14
DNKALYDICFR [TUBB3_Y208_E205K] | 1.38
DPADRYLTEQY [CDKL5_Y286_C291Y] | 0.899
GCKNHYDKDKP [THAP1_Y14_R13H] | 0.583
EKDSNYCLCRT [ASIC2_Y357] | 0.772
PATYTYDEYKK [COL8A2_Y648] | 1.43

Test system: c-Src
Assay: as above

Sequence | phosphorylation enrichment
ILLAGYLVMVI [SLC28A3_Y113] | 0.442
KLNNEYLELNY [MME_Y497] | 0.679
FGSGNYNVFGN [HNRNPA2B1_Y300_D302V_YF] | 0.412
ADLLDYIKALN [HPRT1_Y81] | 0.484
EPSVPYRGMVF [GLI3_Y104_T107M] | 0.462
FALAEYTEVKT [ALDH1A3_Y497_YF] | 0.621
ERIEFYELNKK [PMM2_Y145_D148N] | 0.507
VNLVLHLSIAK [FBXO15_Y496_Y496H] | 0.446
SGDVQYRSSVR [FREM2_Y2158_T2153S] | 0.364
LDFNEYVRDLN [HPRT1_Y198_F199V_YF] | 0.567
DNLSNYVFQGQ [GRIN2A_Y978_N976S] | 0.454
AEFGLYRAMVR [VSX2_Y222_G223R_YF] | 0.855
HGVSSYDTIIS [LDLR_Y465_V468I] | 1.03
RNGNRYFKGIV [DCX_Y64_D62N] | 0.846
LPPREYVVVPS [CAPN1_Y494_G492R] | 0.48
RLLCEYQELMN [KRT75_Y434_R432C] | 0.647
SDVNKYSTAFG [GJB3_Y16_G12D] | 0.361

Sequence | phosphorylation enrichment
LEISPYMLSGR [LRRK2_Y1718] | 0.929
SSYDIYHLSRE [KIR3DL2_Y253] | 9.33
CTTIHYMYMCN [TP53_Y234_N235M] | 0.332
LTYHMYADPNI [SOS1_Y618_F623I] | 9.95
RLGNQYVNVMN [SLC3A1_Y461] | 0.508
PFRKLYESVKK [MKI67_Y241_W238R] | 0.491
ISSLCYELLEE [TRPC6_Y896_R895C] | 0.928
ALERPYTSKHS [NANS_Y71] | 0.461
SNPAYYVLEGV [INPPL1_Y987_N982S] | 1.21
RILDVYIFLGP [GAA_Y340_G335R] | 0.393
WHHIFYNELRV [ACTG1_Y91_T89I] | 0.407
DNKALYDICFR [TUBB3_Y208_E205K] | 3.21
DPADRYLTEQY [CDKL5_Y286_C291Y] | 0.477
GCKNHYDKDKP [THAP1_Y14_R13H] | 0.445
EKDSNYCLCRT [ASIC2_Y357] | 0.506
PATYTYDEYKK [COL8A2_Y648] | 3.07

Target: FGFR1 (UniProt P11362)
Sequence (P11362 whole entry, looked up): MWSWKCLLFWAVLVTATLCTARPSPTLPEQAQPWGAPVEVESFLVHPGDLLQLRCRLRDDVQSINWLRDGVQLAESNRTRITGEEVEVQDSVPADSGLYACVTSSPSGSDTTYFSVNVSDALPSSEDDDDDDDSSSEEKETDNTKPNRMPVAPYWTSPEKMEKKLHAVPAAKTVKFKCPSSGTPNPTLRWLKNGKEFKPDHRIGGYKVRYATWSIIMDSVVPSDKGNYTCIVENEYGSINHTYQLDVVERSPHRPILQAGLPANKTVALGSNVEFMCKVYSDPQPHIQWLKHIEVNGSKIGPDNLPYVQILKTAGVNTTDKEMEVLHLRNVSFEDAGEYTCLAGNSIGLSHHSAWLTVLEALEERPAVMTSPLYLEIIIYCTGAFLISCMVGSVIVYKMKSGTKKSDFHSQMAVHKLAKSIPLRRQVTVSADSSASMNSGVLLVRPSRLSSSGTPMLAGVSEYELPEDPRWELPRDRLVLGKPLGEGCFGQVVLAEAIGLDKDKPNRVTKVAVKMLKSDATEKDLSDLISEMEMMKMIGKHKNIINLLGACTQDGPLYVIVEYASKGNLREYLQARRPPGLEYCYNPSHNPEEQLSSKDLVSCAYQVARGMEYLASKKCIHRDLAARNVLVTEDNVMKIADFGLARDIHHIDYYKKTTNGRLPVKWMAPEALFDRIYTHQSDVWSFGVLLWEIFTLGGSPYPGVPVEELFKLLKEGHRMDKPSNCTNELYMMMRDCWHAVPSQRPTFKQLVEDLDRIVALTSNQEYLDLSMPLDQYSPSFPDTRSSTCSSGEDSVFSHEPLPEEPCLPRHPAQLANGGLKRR
Assay: as above

Sequence | phosphorylation enrichment
ILLAGYLVMVI [SLC28A3_Y113] | 0.58
KLNNEYLELNY [MME_Y497] | 4.67
FGSGNYNVFGN [HNRNPA2B1_Y300_D302V_YF] | 0.483
ADLLDYIKALN [HPRT1_Y81] | 0.434
EPSVPYRGMVF [GLI3_Y104_T107M] | 0.422
FALAEYTEVKT [ALDH1A3_Y497_YF] | 0.894
ERIEFYELNKK [PMM2_Y145_D148N] | 0.489
VNLVLHLSIAK [FBXO15_Y496_Y496H] | 0.476
SGDVQYRSSVR [FREM2_Y2158_T2153S] | 0.378
LDFNEYVRDLN [HPRT1_Y198_F199V_YF] | 0.532
DNLSNYVFQGQ [GRIN2A_Y978_N976S] | 0.571
AEFGLYRAMVR [VSX2_Y222_G223R_YF] | 0.484
HGVSSYDTIIS [LDLR_Y465_V468I] | 0.944
RNGNRYFKGIV [DCX_Y64_D62N] | 0.578
LPPREYVVVPS [CAPN1_Y494_G492R] | 2.83
RLLCEYQELMN [KRT75_Y434_R432C] | 0.961
SDVNKYSTAFG [GJB3_Y16_G12D] | 0.348

Sequence | phosphorylation enrichment
LEISPYMLSGR [LRRK2_Y1718] | 0.718
SSYDIYHLSRE [KIR3DL2_Y253] | 2.73
CTTIHYMYMCN [TP53_Y234_N235M] | 0.485
LTYHMYADPNI [SOS1_Y618_F623I] | 4.27
RLGNQYVNVMN [SLC3A1_Y461] | 0.541
PFRKLYESVKK [MKI67_Y241_W238R] | 2.28
ISSLCYELLEE [TRPC6_Y896_R895C] | 0.748
ALERPYTSKHS [NANS_Y71] | 0.381
SNPAYYVLEGV [INPPL1_Y987_N982S] | 15.1
RILDVYIFLGP [GAA_Y340_G335R] | 0.836
WHHIFYNELRV [ACTG1_Y91_T89I] | 0.527
DNKALYDICFR [TUBB3_Y208_E205K] | 0.612
DPADRYLTEQY [CDKL5_Y286_C291Y] | 0.454
GCKNHYDKDKP [THAP1_Y14_R13H] | 0.555
EKDSNYCLCRT [ASIC2_Y357] | 0.556
PATYTYDEYKK [COL8A2_Y648] | 0.749
